In publication PMC3182996:

Assays:
[1] = molecular target: Aβ^40Arc fibrils (pre-formed fibrils of Aβ1–40 Glu22Gly); assay: SPR; co-injection: 2 µM Aβ injected for 30 s over immobilised pre-formed fibrils at 20 µl/min in PBS at 25°C, at once followed by 0–400 nM Aβ; the concentration that gives a plateau (critical concentration) is taken as the binding constant
[2] = molecular target: Aβ^40WT fibrils (pre-formed fibrils of wild type Aβ1–40) (UniProt P05067); assay: as above

Kd [1]: 100 nM
Kd [2]: 50 nM
Substance: Aβ1–40 Glu22Gly (Arctic variant), monomeric (peptide)
